B1: Tma Cel5A: wild-type cellulase of Thermatoga maritima strain MSB8 (Accession No. NP_229549); SEQ ID NO: 20 (protein, listed as Thermotoga maritima)
chain: MGVDPFERNKILGRGINIGNALEAPNEGDWGVVIKDEFFDIIKEAGFSHVRIPIRWSTHAYAFPPYKIMDRFFKRVDEVINGALKRGLAVVINIHHYEELMNDPEEHKERFLALWKQIADRYKDYPETLFFEILNEPHGNLTPEKWNELLEEALKVIRSIDKKHTIIIGTAEWGGISALEKLSVPKWEKNSIVTIHYYNPFEFTHQGAEWVEGSEKWLGRKWGSPDDQKHLIEEFNFIEEWSKKNKRPIYIGEFGAYRKADLESRIKWTSFVVREMEKRRWSWAYWEFCSGFGVYDTLRKTWNKDLLEALIGGDSIE
B2: Pho EG: cellulase of Pyrococcus horikoshii strain OT3 (Accession No. NP_143072); SEQ ID NO: 21 (protein, listed as Pyrococcus horikoshii)
chain: MEGNTILKIVLICTILAGLFGQVVPVYAENTTYQTPTGIYYEVRGDTIYMINVTSGEETPIHLFGVNWFGFETPNHVVHGLWKRNWEDMLLQIKSLGFNAIRLPFCTESVKPGTQPIGIDYSKNPDLRGLDSLQIMEKIIKKAGDLGIFVLLDYHRIGCTHIEPLWYTEDFSEEDFINTWIEVAKRFGKYWNVIGADLKNEPHSVTSPPAAYTDGTGATWGMGNPATDWNLAAERIGKAILKVAPHWLIFVEGTQFTNPKTDSSYKWGYNAWWGGNLMAVKDYPVNLPRNKLVYSPHVYGPDVYNQPYFGPAKGFPDNLPDIWYHHFGYVKLELGYSVVIGEFGGKYGHGGDPRDVIWQNKLVDWMIENKFCDFFYWSWNPDSGDTGGILQDDWTTIWEDKYNNLKRLMDSCSKSSSSTQSVIRSTTPTKSNTSKKICGPAILIILAVFSLLLRRAPR

Key:
[1] = Activity assay on insoluble substrate: [C2mim][OAc] pretreated corn stover; type: biochemical; details: pCorn stover
Text: (§1) Corn stover refers to stalks, leaves and cobs that remain in the fields after the corn kernel harvest and is the largest quantity of biomass residue in the United States and as such is also a LC-biomass source for producing cellulosic ethanol in the United States. [C2mim][OAc] pretreated corn stover is used as a substrate to verify enzymatic efficiency on IL-pretreated biomass and a comparison made with [C2mim][OAc] pretreated Avicel. Avicel is a commercially available microcrystalline cellulose and a good model substrate for analysis. Similar assays are done in the presence of [C2mim][OAc] to simulate real biomass processing and saccharification scenarios. The assay products for the reactions in the presence of IL are detected by high performance anion exchange chromatography (HPAEC). The enzymatic hydrolysis reaction is carried out for 8 h for the T. viride cellulase and 15 h for the hyperthermophilic enzymes, taking into account the half-lives of these enzymes. To compare the amounts of total sugars formed between different reactions, the sum of glucose, xylose and cellobiose are calculated and reported as mmoles of sugars formed per min per mg of enzyme used (Table 7). A comparison of assay results between pretreated and untreated substrate indicates a 2-6 fold increase in hydrolysis products after pretreatment irrespective of the enzyme used, thereby confirming that IL pretreatment can increase the efficiency of hydrolysis of cellulose recovered from biomass. […] The catalytic efficiency of the fungal enzyme however, decreases with increasing IL concentration in the reaction mix. After normalizing for the reaction time and enzyme amounts, the amount of sugars formed is undetectable at 15% [C2mim][OAc]. […] The yield of sugars from Tma Cel5A hydrolysis of pretreated Avicel in the presence of 15% IL decreases by 43% compared to 0% IL, while the decrease is only 10% in the case of Pho EG on the same substrate under similar conditions (Table 7).
(§2) The hydrolysis reactions are performed under pH and temperatures for each enzyme as described herein. The reactions are run over a 14 h period with 5-10 mg of enzyme with 6% (w/v) enzyme loading in optimum buffer for each enzyme and run in duplicate. The reaction products are measured on a HPLC and HPAEC. The amounts of sugars detected are shown in mmoles and normalized with regards to amount of enzyme and time of reaction. Different reactions under each enzyme were run under exactly similar conditions.
(§3) [C2mim][OAc] (1 kg, as received, <0.2% moisture specified) is heated to 130° C. in a 1.5 L glass reaction vessel with mechanical stirring and 8% w/w (corn stover, 4.8% moisture) or 10% w/w (Avicel PH-101, 3% moisture). After around 3 h when the majority (corn stover) or all (Avicel) has dissolved, the dissolved corn stover or Avicel is allowed to cool to below 80° C. and is added to 2 L of 95% ethanol with rapid agitation to induce the precipitation of dissolved materials. The resulting slurry is filtered under pressure through polypropylene filter cloth and the solids redispersed in 2 L of additional ethanol. The filtration and redispersion steps are repeated twice to remove most residual ionic liquid and the filter cake dried under vacuum at 40° C. to yield a free-flowing powder product. Residual free ionic liquid remaining in the dried biomass is estimated to be less than 4% (w/w).
(§4) Enzymatic activity is measured on soluble polysaccharide substrates, CMC, using the 3,5-dinitrosalicylic acid (DNS) reducing sugar assay. Briefly, 2% CMC (w/v) in […] acetate buffer, (100 mM, pH 4.5 and pH 4.8 for T. viride and Tma, respectively, and 100 mM MES buffer, pH 6.4 for P. hori EG) is incubated at 80° C. for 30 min for Tma Cel5A and Pho enzymes and 37° C. and 10 min for T. viride. The solution is cooled down to 4° C. and […] of DNS solution is added. The reactants are incubated at 95° C. for 5 min and cooled down to room temperature before the absorbance is read at 540 nm. […]

[2] = Melting temperature (Tm) of the enzyme at varying EMIM Acetate concentration; type: physicochemical
[3] = Activity assay on insoluble substrate: [C2mim][OAc] pretreated Avicel; type: biochemical; details: for decrease of the yield of sugars from hydrolysis of pretreated Avicel: 15% IL compared to 0% IL; for Sugars produced (sum of glucose, cellobiose and xylose): pAvicel
Text: as §1, §2, §3, §4

| Molecule | Sugars produced (sum of glucose, cellobiose and xylose) ([1]; 0% [C2mim][OAc]) [µmol/min/mg] | Sugars produced (sum of glucose, cellobiose and xylose) ([1]; 5% [C2mim][OAc]) [µmol/min/mg] | Sugars produced (sum of glucose, cellobiose and xylose) ([1]; 10% [C2mim][OAc]) [µmol/min/mg] | Sugars produced (sum of glucose, cellobiose and xylose) ([1]; 15% [C2mim][OAc]) | Melting Temp. ([2]; 0% EMIM Acetate, listed as T. maritima) [°C] | Melting Temp. ([2]; 0% EMIM Acetate, listed as T. maritima endoglucanase) [°C] | Melting Temp. ([2]; 5% EMIM Acetate) [°C] | Melting Temp. Decrease ([2]; 5% EMIM Acetate vs 0%) [°C] | Melting Temp. ([2]; 10% EMIM Acetate) [°C] | Melting Temp. Decrease ([2]; 10% EMIM Acetate vs 0%) [°C] | Melting Temp. ([2]; 15% EMIM Acetate) [°C] | Melting Temp. Decrease ([2]; 15% EMIM Acetate vs 0%) [°C] | Melting Temp. ([2]; 20% EMIM Acetate) [°C] | Melting Temp. Decrease ([2]; 20% EMIM Acetate vs 0%) [°C] | decrease of the yield of sugars from hydrolysis of pretreated Avicel [3] [%] | Sugars produced (sum of glucose, cellobiose and xylose) ([3]; 0% [C2mim][OAc]) [µmol/min/mg] | Sugars produced (sum of glucose, cellobiose and xylose) ([3]; 5% [C2mim][OAc]) [µmol/min/mg] | Sugars produced (sum of glucose, cellobiose and xylose) ([3]; 10% [C2mim][OAc]) | Sugars produced (sum of glucose, cellobiose and xylose) ([3]; 15% [C2mim][OAc]) [µmol/min/mg] |
| --- | --- | --- | --- | --- | --- | --- | --- | --- | --- | --- | --- | --- | --- | --- | --- | --- | --- | --- | --- |
| B1 | 9 ± 1 | 8 ± 0.9 | 7 ± 1 | 5.9 ± 1^ μmoles min^−1 mg^−1 | 108 | 109 | 101 | 8 | 98 | 11 | 93 | 16 | 89 | 20 | 43 | 6.6 ± 0.8 | 6 ± 0.5 | 5.7 ± 1^ μmoles min^−1 mg^−1 | 4 ± 0.5 |
| B2 | 2.14 ± 0.1 | 2.2 ± 0.14 | 2.0 ± 0.2 | 1.9 ± 0.1 µmol/min/mg | – | – | – | – | – | – | – | – | – | – | 10 | 3.2 ± 0.2 | 3.3 ± 0.2 | 3.1 ± 0.2 µmol/min/mg | 2.9 ± 0.06 |
